Biological target: the molecule itself
Assay: SDS-PAGE and Western blot after immunoprecipitation; 2 µg purified rIF1 immunoprecipitated with anti-IF1 antibodies cross-linked on protein A/G resin, eluted in 0.2 M glycine pH 2.8, boiled in Laemmli buffer with SDS and DTT, 15% SDS-PAGE, blot with anti-IF1; bands at the size of monomer and dimer

B1: Recombinant human IF1 (mitochondrial Inhibitory Factor 1) (natural protein, UniProt Q9UII2-1 26-106, looked up)
chain: GSDQSENVDRGAGSIREAGGAFGKREQAEEERYFRAQSREQLAALKKHHEEEIVHHKKEIERLQKEIERHKQKIKMLKHDD
notes: mature peptide without the mitochondrial targeting signal, amplified from HeLa cell cDNA; Cloned at BamHI/HindIII into pBEn-SBP-SET1-Qa (Stratagene); also called rIF1; recombinant IF1
stoichiometry N: 2
